Results published in paper PMC12251106, “An Organic Solvent-Tolerant α-L-Rhamnosidase from Dictyoglomus thermophilum and Its Application in Production of Icariside I from Icariin” (Molecules, 2025).

Substrate: C[C@@H]1O[C@@H](Oc2ccc([N+](=O)[O-])cc2)[C@H](O)[C@H](O)[C@H]1O
Assay: purified protein
Format: biochemical, Dictyoglomus thermophilum
Conditions: 100 mM NaAc-HAc pH 6.0, 55 °C, 0.1-5 mM pNPR, 0.2 mg/mL enzyme, apparent parameters

B1: DthRha (Dictyoglomus thermophilum H-6-12) (protein)
chain: MKSSNIYSPFDLKCEFTTNPLGVDKKNPIFSWKLRHLEKNEKQTAYQVIVSSSLETINDNIGDVWDTGKVLSSEQVIKYEGKELEPCKVYFWKVRWWDSKDQESPFSVVNTFETGLMNEENWKAKWITKKEHKYEVYSPDGAPFGLNYTIAYAPMFRKSFSISKKIKRARVYIAGLGLYELYINGERIGDRVLDPGQTDYKKRVLYTVYDVSKNIRDGKNAIGVILGNGRYVKEYGYDFPKLIIQVLVEYEDDSIEWIVSDESWKTTYGPITLNSLYHGEIYDGRKEIKGWNLPDFDDSTWENAILAEPPGGKLYSEIYPPIRITKTIKPIKMWSPEPGTYVYDFGQNYTGWIKIKVRTNESGKEIRIRHAELTYEDGTLNYSTNRTALATDVYITKGEGYEEYEPRFTYHGFRYVEILGYPGVPTLEDIEGKVVHTAVESNGEFICSNELINKIHHNIIWGQLSNLMSIPTDCPQRDERMGWMGDAQLSAEEAIFNFDMIGFYRKYLNDIRDAQKENGSLSDVIPPYWSIYPGDPAWSTAYITIAWYLYQYYGDKYVLEEHYEGFKKYVEFLKKLAPDYIVSFYKYGDWCQPGTVRPKDNSGELTSTFYFYHDVITLSKIAKLLGKEADYKYYSELADKIKSAFNKKFLKEKAYASIPTELSEENVKALLEKYPEDIKDFLRQQFTILSSLGMFTSQTLNTLPLYLNLVPEDKVQDVLKTLLEDIIIRHDYHLDTGIVATRYIFDVLTSYGYDEVAYKIVNQKTYPSFGYMIEEGATTLWERWEKLTSTGMNSHNHIMFGSVDAWFYRVIAGVRVGEPGWNKIIFEPHPVGDLKYAKARLNTIKGEVEINWQKTENIFSMRISVPVNSEGEVHVPKLFERFVVKEGDNIIYEKKGDLEENEKYIVIRVGSGSYNFYMEKI
notes: 921 residues (2763 bp gene); theoretical 106 kDa, about 105 kDa on SDS-PAGE
With B1 the Km was 440 µM, the kcat was 7.99 s⁻¹ and the kcat/Km was 18200 M⁻¹ s⁻¹.
